Reference: paper PMC5109273

B1: non-fused full-length ICP47(1-88) with C-terminal mVenus-myc-His10 tag (natural protein)
chain: MSWALEMADTFLDTMRVGPRTYADVRDEINKRGREDREAARTAVHDPERPLLRSPGLLPEIAPNASLGVAHRRTGGTVTDSPRNPVTR

Assays:
TAP (Homo sapiens) = TAP (Homo sapiens) (UniProt Q03518); conditions: cited from earlier work
[1] = molecular target: ICP47-TAP fusion complex with fused ICP47(∆1-11) (UniProt P03170); assay: co-IP; HEK293T co-transfected 1:1:5 (TAP1:TAP2:viral factor); solubilised in 2% digitonin; sequential precipitation via SBP tag (streptavidin agarose, biotin elution) and C8 tag (anti-C8 antibody on Dynabeads); co-precipitated mVenus-tagged viral factor quantified by SDS-PAGE and in-gel fluorescence relative to TAP lacking fused ICP47; on ice, pH 7.4

UniProt Q03518, sequence (Q03518 whole entry, chain 1 of 2, the tested form may be a part): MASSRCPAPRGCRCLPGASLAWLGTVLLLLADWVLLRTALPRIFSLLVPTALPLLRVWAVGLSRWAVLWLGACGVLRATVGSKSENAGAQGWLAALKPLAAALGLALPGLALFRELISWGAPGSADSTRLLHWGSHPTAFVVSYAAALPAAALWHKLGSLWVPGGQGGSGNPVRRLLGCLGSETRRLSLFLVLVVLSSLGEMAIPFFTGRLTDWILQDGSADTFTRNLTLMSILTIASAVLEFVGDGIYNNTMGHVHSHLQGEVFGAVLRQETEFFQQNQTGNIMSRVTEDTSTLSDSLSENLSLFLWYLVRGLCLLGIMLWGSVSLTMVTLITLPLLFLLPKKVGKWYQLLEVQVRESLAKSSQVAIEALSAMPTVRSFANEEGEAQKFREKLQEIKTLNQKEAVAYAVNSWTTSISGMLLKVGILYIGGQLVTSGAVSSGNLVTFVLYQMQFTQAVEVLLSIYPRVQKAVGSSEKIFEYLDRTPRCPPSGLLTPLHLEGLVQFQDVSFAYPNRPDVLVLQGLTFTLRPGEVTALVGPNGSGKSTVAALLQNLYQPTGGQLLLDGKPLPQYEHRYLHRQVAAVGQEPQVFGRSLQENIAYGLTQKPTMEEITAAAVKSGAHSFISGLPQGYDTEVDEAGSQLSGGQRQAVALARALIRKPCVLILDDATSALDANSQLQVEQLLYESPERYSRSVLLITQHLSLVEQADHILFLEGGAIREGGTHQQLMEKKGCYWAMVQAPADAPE
UniProt Q03518, sequence (Q03519 whole entry, chain 2 of 2, further chain, the tested form may be a part): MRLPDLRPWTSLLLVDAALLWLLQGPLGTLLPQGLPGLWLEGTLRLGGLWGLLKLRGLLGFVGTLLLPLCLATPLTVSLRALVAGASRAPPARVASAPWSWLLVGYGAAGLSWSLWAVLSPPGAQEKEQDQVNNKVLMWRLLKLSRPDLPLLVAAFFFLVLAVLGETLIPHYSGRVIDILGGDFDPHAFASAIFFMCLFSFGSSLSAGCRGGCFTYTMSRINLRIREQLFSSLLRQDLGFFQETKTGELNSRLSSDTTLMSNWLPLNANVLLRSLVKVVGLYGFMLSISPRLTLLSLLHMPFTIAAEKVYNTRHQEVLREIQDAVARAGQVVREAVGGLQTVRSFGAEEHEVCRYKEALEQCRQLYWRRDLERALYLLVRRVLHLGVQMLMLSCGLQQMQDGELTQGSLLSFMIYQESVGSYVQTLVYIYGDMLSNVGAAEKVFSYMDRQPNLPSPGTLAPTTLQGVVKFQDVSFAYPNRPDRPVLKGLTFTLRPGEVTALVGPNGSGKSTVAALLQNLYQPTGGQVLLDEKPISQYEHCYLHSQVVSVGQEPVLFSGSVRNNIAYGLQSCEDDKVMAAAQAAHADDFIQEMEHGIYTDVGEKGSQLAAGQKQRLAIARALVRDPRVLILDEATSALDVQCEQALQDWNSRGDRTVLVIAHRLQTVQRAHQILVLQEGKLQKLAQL

Row | Molecule | Kd (TAP (Homo sapiens)) [nM] | co-precipitated viral factor relative to the TAP complex lacking fused ICP47 [1] [%]
1 | ICP47 (from UniProt P03170) | 50 | –
2 | B1 | – | 100
